What was measured:
[1] = biological target: Sb44, synthetic nanobody (sybody) against TGP; assay: SEC; TGP (or Cys mutant) and sybody (or mutant) mixed 1:3 on ice for 20 min; Superdex 200 Increase 10/300 GL; 150 mM NaCl, 20 mM HEPES pH 7.5; absorbance at 493 nm and 280 nm
Sb44 V100C [2] = assay: SDS-PAGE (non-reducing); individually purified proteins; Laemmli sample buffer without DTT; 12% gel; Coomassie and in-gel fluorescence; shows disulfide-linked species
Sb44 V100C [3] = assay: SEC; TGP (or Cys mutant) and sybody (or mutant) mixed 1:3 on ice for 20 min; Superdex 200 Increase 10/300 GL; 150 mM NaCl, 20 mM HEPES pH 7.5; absorbance at 493 nm and 280 nm

stoichiometry N [1]	stoichiometry N (Sb44 V100C [2])	stoichiometry N (Sb44 V100C [3])	Binder
2			Sb44, synthetic nanobody (sybody) against TGP (VHH) VHH: QVQLVESGGGLVQAGGSLRLSCAASGFPVGRASMWWYRQAPGKEREWVAAISSYGWVTAYADSVKGRFTISRDNAKNTVYLQMNSLKPEDTAVYYCEVSVGTGYRGQGTQVTVSA
	2	2	Sb44 V100C (VHH) VHH: QVQLVESGGGLVQAGGSLRLSCAASGFPVGRASMWWYRQAPGKEREWVAAISSYGWVTAYADSVKGRFTISRDNAKNTVYLQMNSLKPEDTAVYYCEVSCGTGYRGQGTQVTVSA

Reference: publication PMC12368520
